{"source": "patent US20120100141A1", "target": "Mouse GLP-1 receptor (mouse) (UniProt O35659)", "sequence (O35659 22-463)": "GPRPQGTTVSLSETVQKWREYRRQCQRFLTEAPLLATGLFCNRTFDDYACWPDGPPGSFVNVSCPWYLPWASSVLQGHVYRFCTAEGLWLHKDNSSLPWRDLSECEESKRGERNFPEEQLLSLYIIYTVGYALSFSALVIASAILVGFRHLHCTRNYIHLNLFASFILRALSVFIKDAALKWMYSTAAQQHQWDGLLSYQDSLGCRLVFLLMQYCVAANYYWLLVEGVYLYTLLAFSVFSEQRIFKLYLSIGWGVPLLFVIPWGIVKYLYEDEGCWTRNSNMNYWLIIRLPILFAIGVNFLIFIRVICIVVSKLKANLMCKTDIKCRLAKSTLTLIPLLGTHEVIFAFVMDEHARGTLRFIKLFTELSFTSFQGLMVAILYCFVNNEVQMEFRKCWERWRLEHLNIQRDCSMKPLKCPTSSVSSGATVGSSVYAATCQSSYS", "experiment": "cell-based or functional assay", "data": [{"substance": "GLP-1 (7-36) (from UniProt P01275 98-127) (peptide)", "values": [{"measurement": "pEC50, melanophore functional GLP-1R bioassay", "value": 11.5}]}]}
